Substrate: NC(=O)CC[C@H](N)C(=O)O
Assay: purified protein
Assay type: biochemical, Bacillus subtilis
Settings: 10–100 mM L-glutamine, 20 mM potassium phosphate, pH 7.5, 37°C, no NaCl

Protein	Km [mM]	kcat/Km [M⁻¹ s⁻¹]	kcat [s⁻¹]
EAK16-E3C/E55F/D213T (Bacillus subtilis subsp. subtilis str. 168; D213T/E3C/E55F) (protein, N-terminal His-tag, designed peptide EAK16 (…) and PT linker (…) fused to N-terminus of triple mutant; expressed in B. subtilis WB600; oligomerises) KCLIKEHQKDINPALQLHDWVEYYRPFAANGQSANYIPALGKVNDSQLGICVLFPDGTMIHAGDWNVSFTMQSISKVISFIAACMSRGIPYVLDRVDVEPTGDAFNSIIRLEINKPGKPFNPMINAGALTIASILPGESAYEKLEFLYSVMETLIGKRPRIHEEVFRSEWETAHRNRALAYYLKETNFLEAEVEETLEVYLKQCAMESTTETIALIGLILAHDGYHPIRHEQVIPKDVAKLAKALMLTCGMYNASGKYAAFVGVPAKSGVSGGIMALVPPSARREQPFQSGCGIGIYGPAIDEYGNSLTGGMLLKHMAQEWELSIF	18.45 ± 1.2	174000 ± 4200	–
E3C/E55F/D213T (Bacillus subtilis subsp. subtilis str. 168; D213T/E3C/E55F) (protein, full-length triple mutant, N-terminal His-tag kept, expressed in B. subtilis WB600 (pP43NMK), about 40 kDa) MKCLIKEHQKDINPALQLHDWVEYYRPFAANGQSANYIPALGKVNDSQLGICVLFPDGTMIHAGDWNVSFTMQSISKVISFIAACMSRGIPYVLDRVDVEPTGDAFNSIIRLEINKPGKPFNPMINAGALTIASILPGESAYEKLEFLYSVMETLIGKRPRIHEEVFRSEWETAHRNRALAYYLKETNFLEAEVEETLEVYLKQCAMESTTETIALIGLILAHDGYHPIRHEQVIPKDVAKLAKALMLTCGMYNASGKYAAFVGVPAKSGVSGGIMALVPPSARREQPFQSGCGIGIYGPAIDEYGNSLTGGMLLKHMAQEWELSIF	22.72 ± 1.5	162000 ± 3240	3730 ± 190

Source: article PMC9490022, “Enhanced salt-tolerance of Bacillus subtilis glutaminase by fusing self-assembling amphipathic peptides at its N-terminus” (Frontiers in Bioengineering and Biotechnology, 2022)
